From patent US20230192819A1 (TWIST BIOSCIENCE, published 2023) come the findings set out here.

In general, Kd refers to the constant that tells how readily two partners part at equilibrium. High values mean weaker binding, low ones tighter binding. For orientation: koff means the first-order rate constant of dissociation. Usually kon stands for the rate constant with which the complex forms. A high value points to faster complex formation. One may read the IC50 as the concentration that gives 50% inhibition.

Where “and” joins values, the source holds several entries; their conditions need not be identical. Equal entries are not always repeated. Where two headings read alike, the source gives them in different places.

Assay [1] has as its target T1, C52Hg Brazilian variant (Acro) spike protein (SARS-CoV-2, UniProt P0DTC2 16-1213). Briefly: SPR (Carterra LSA).
Assay [2] has as its target T2, C52Hk S. African variant (Acro) spike protein (SARS-CoV-2, UniProt P0DTC2 16-1213). Briefly: SPR (Carterra LSA).
In assay [3] the target is T3, Acro S1 spike protein (SARS-CoV-2) (SARS-CoV-2, UniProt P0DTC2 16-685). Briefly: SPR (Carterra LSA).
In assay [4] the target is T4, S1 variant B.1.1.7: UK (Acro) spike protein (SARS-CoV-2, UniProt P0DTC2 16-1213). Put plainly: SPR (Carterra LSA).
The target of assay [5] is T4, S1 variant B.1.1.7: UK (Acro) spike …. Briefly: SPR (Carterra LSA); […]; 1:1 model; […].
The target of assay [6] is T3, Acro S1 spike protein (SARS-CoV-2). Briefly: SPR (Carterra LSA); antibody on chip, spike protein as analyte; summary table.
Assay [7] addresses T4, S1 variant B.1.1.7: UK (Acro) spike …. The assay is described as above.
The target of assay [8] is T3, Acro S1 spike protein (SARS-CoV-2). Briefly: SPR (Carterra LSA); […]; 1:1 model; […].
The target in assay [9] is T1, C52Hg Brazilian variant (Acro) spike …. Briefly: SPR (Carterra LSA); antibody on chip, spike protein as analyte; summary table.
For assay [10] the target is unchanged. Put plainly: SPR (Carterra LSA); […]; 1:1 model; […].
Assay [11] deals with T2, C52Hk S. African variant (Acro) spike …. Put plainly: SPR (Carterra LSA); antibody on chip, spike protein as analyte; summary table.
For assay [12], the target named is Delta variant (Acro) spike protein (SARS-CoV-2, UniProt P0DTC2 16-1213).
Assay [13] has as its target T2, C52Hk S. African variant (Acro) spike …. Put plainly: SPR (Carterra LSA); […]; 1:1 model; […].
Assay [14] addresses T3, Acro S1 spike protein (SARS-CoV-2).
The target of assay [15] is T1, C52Hg Brazilian variant (Acro) spike ….
Assay [16] has as its target California Variant W152C_L452R_D614G.
In assay [17] the target is T4, S1 variant B.1.1.7: UK (Acro) spike ….

B1: Antibody 1-6 (Fc fusion)
chain: EVQLVESGGGLVQPGGSLRLSCAASGSISSINVMGWFRQAPGKEREWMGVMAYDGSTYYADSVKGRFTISADNSKNTAYLQMNSLKPEDTAVYYCAAFDGYSGSDWGQGTLVTVSS
Turning to B1, the binding result in [1], in assay [2], in assay [3] and in assay [4] was “no binding” in each case.

B2: Antibody 1-13 (Fc fusion)
chain: EVQLVESGGGLVQPGGSLRLSCAASGRTTFSSYTMGWFRQAPGKEREFVASITRSGVLNYADSVKGRFTISADNSKNTAYLQMNSLKPEDTAVYYCAKEDVGKPFDWGQGTLVTVSS
Regarding B2, the dissociation constant (Kd) came to 5.18 nM in assay [5], 18.2 nM in assay [6], 5.18 nM in assay [7] and 18.2 nM in assay [8]. Moreover, the koff is 0.00088 s⁻¹ in [5] and 0.0031 s⁻¹ in assay [8]. Further, the kon in [5] and in assay [8] was 170000 M⁻¹ s⁻¹ throughout.

B3: Antibody 1-14 (Fc fusion)
chain: EVQLVESGGGLVQPGGSLRLSCAASGFTPDDYAMGWFRQAPGKEREFVAAINWSGVTTYHYYADSVKGRFTISADNSKNTAYLQMNSLKPEDTAVYYCASDESDAANWGQGTLVTVSS
Regarding B3, the binding result in assay [1], in [2], in [3] and in assay [4] was “no binding” throughout.

B4: Antibody 1-16 (Fc fusion)
chain: EVQLVESGGGLVQPGGSLRLSCAASGRTYAMGWFRQAPGKERELVAEITAGGSTYYADSVKGRFTISADNSKNTAYLQMNSLKQEDTAVYYCAVDGPFGWGQGTLVTVSS
On to B4, for which the Kd worked out at 1.06 nM in assay [5], 4.79 nM in assay [9], 1.06 nM in assay [7] and 4.79 nM in assay [10]. For the same molecule, the koff in assay [5] came out at 0.00037 s⁻¹; in assay [10] it was 0.0034 s⁻¹. The results for the kon in [5] and in assay [10] were 350000 M⁻¹ s⁻¹ and 710000 M⁻¹ s⁻¹, respectively.

B5: Antibody 1-2 (Fc fusion)
chain: EVQLVESGGGLVQPGGSLRLSCAASGGSEYSYSTFSSFVMGWFRQAPGKERELVASISWSGGHTFYADSVKGRFTISADNSKNTAYLQMNSLKPEDTAVYYCAAYLRGPYYSSFYDSTKYEWGQGTLVTVSS
In turn, B5 showed a Kd in assay [6] of 2.41 nM. Moreover, in assay [8], the dissociation constant (Kd) stood at 2.41 nM, the koff was determined as 0.00053 s⁻¹ and the kon stood at 220000 M⁻¹ s⁻¹.

B6: Antibody 1-20 (Fc fusion)
chain: EVQLVESGGGLVQPGGSLRLSCAASGRTFRRYTMGWFRQAPGKEREFVASITSSGVNAYADSVKGRFTISADNSKNTAYLQMNSLKPEDTAVYYCAKEDVGKPFDWGQDTLVTVSS
For B6, the binding result in [1], in [2], in assay [3] and in [4] was “no binding” in each case.

B7: Antibody 1-8 (Fc fusion)
chain: EVQLVESGGGLVQPGGSLRLSCAASGRTLSRYTMGWFRQAPGKEREFVASITSGGTTNYADSVKGRFTISADNSKNTAYLQMNSLKPEDTAVYYCAKEDVGKPFDWGQGTLVTVSS
For the molecule B7, the dissociation constant Kd in [5] was 2.26 nM; in assay [9], 0.321 nM; in [11], 1 nM; in assay [7] it was 2.26 nM; in [12], 2.39 nM and 3.18 nM; in assay [13], 1 nM. For the same molecule, the Kd is 2.22 nM and 4.13 nM in assay [14]; 2.53 nM and 1.9 nM in [15]; 0.321 nM in assay [10]; 3.2 nM in assay [17]. Further, the koff in assay [5] is 0.0007 s⁻¹; in assay [12] it was 0.000409 s⁻¹ and 0.000318 s⁻¹; in [13], 0.00057 s⁻¹; in assay [14], 0.000412 s⁻¹ and 0.000662 s⁻¹; in assay [15], 0.000158 s⁻¹ and 0.00011 s⁻¹; in assay [10] it was 0.00017 s⁻¹. In addition, the dissociation rate constant (koff) in assay [17] worked out at 0.000572 s⁻¹. Also, the kon was 310000 M⁻¹ s⁻¹ in assay [5]; 171000 M⁻¹ s⁻¹ and 100000 M⁻¹ s⁻¹ in [12]; 570000 M⁻¹ s⁻¹ in assay [13]; 186000 M⁻¹ s⁻¹ and 160000 M⁻¹ s⁻¹ in assay [14]; 62400 M⁻¹ s⁻¹ and 58000 M⁻¹ s⁻¹ in [15]; 530000 M⁻¹ s⁻¹ in assay [10]. The same molecule showed an association rate constant (kon) in assay [17] of 179000 M⁻¹ s⁻¹. Half-maximal inhibition in assay [16] (IC50) required 2.72 nM.

B8: Antibody 1-10 (Fc fusion)
chain: EVQLVESGGGLVQPGSSLRLSCAASGGTFSSIGMGWFRQAPGKEREFVAAISWDGGATAYADSVKGRFTISADNSKNTAYLQMNSLKPEDTAVYYCAKEDVGKPFDWGQGTLVTVSS
As to B8, the Kd in assay [5] was 0.481 nM; in assay [9], 127 nM; in assay [11], 13.9 nM; in assay [6] it was 1.95 nM; in assay [7] it was 0.481 nM; in assay [12] it was 7.43 nM and 5.43 nM. The Kd in assay [13] was 13.9 nM; in [14] it was 2.6 nM; in [8] it was 1.96 nM; in assay [10], 127 nM; in assay [17] it was 0.33 nM and 0.27 nM. Further, the koff was 0.00013 s⁻¹ in assay [5]; 0.000706 s⁻¹ and 0.000516 s⁻¹ in assay [12]; 0.00089 s⁻¹ in [13]; 0.00053 s⁻¹ and 0.000728 s⁻¹ in assay [14]; 0.00053 s⁻¹ in [8]; 0.00081 s⁻¹ in assay [10]. The off-rate constant (koff) in assay [17] was 2.54e-05 s⁻¹ and 2.32e-05 s⁻¹. In addition, the kon in assay [5] amounted to 270000 M⁻¹ s⁻¹; in assay [12], 95000 M⁻¹ s⁻¹; in assay [13] it was 64000 M⁻¹ s⁻¹; in assay [14], 280000 M⁻¹ s⁻¹; in [8], 270000 M⁻¹ s⁻¹; in [10], 6400 M⁻¹ s⁻¹. Also, the kon in assay [17] was 77000 M⁻¹ s⁻¹ and 86000 M⁻¹ s⁻¹. Further, in [16], the IC50 amounted to 0.13 nM.

B9: Antibody 1-17 (Fc fusion)
chain: EVQLVESGGGLVQPGGSLRLSCAASGRTIVPYTMGWFRQAPGKEREEVAAISTGGGGTYYADSVKGRFTISADNSKNTAYLQMNSLKPEDTAVYYCAVDGPFGWGQGTLVTVSS
In [6], B9 returned a Kd of 5.15 nM. In [8], this molecule had a Kd of 5.15 nM, an off-rate constant (koff) of 0.0017 s⁻¹ and an association rate constant (kon) of 330000 M⁻¹ s⁻¹.

B10: Antibody 1-3 (Fc fusion)
chain: EVQLVESGGGLVQPGGSLRLSCAASGTTFRINVMGWFRQAPGKEREFVAGISWTGGSTIYADSVKGRFTISADNSKNTAYLQMNSLKPEDTAVYYCAAFDGYSGSDWGQGTLVTVSS
As for B10, the binding result in [1], in assay [2], in [3] and in assay [4] was “no binding” throughout.

B11: Antibody 1-11 (Fc fusion)
chain: EVQLVESGGGLVQPGGSLRLSCAASGFTFDDYVMGWFRQAPGKEREFVAVISWTGESTLYADSVKGRFTISADNSKNTAYLQMNSLKPEDTAVYYCAAFDGYSGSDWGQGTLVTVSS
Turning to B11, the dissociation constant Kd in assay [9] came out at 4.67 nM; in assay [11], 5 nM; in assay [13], 5 nM; in assay [10] it was 4.67 nM. Also, the koff in assay [13] is 0.0019 s⁻¹; in [10] it was 0.0014 s⁻¹. For the same molecule, the values for the kon in assay [13] and in assay [10] were 380000 M⁻¹ s⁻¹ and 300000 M⁻¹ s⁻¹, respectively.

B12: Antibody 1-21 (Fc fusion)
chain: EVQLVESGGGLVQPGGSLRLSCAASGPTFSIYAMGWFRQAPGKERELVAGISWNGGSTNYADSVKGRFTISADNSKNTAYLQMNSLKPEDTAVYYCAAFDGYTGSDWGQGTLVTVSS
With B12, the binding result in [1], in assay [2], in assay [3] and in [4] was “no binding” each time.

B13: Antibody 1-19 (Fc fusion)
chain: EVQLVESGGGLVQPGGSLRLSCAASGFTFSDYAMGWFRQAPGKEREVVARIYWSSANTYYADSVKGRFTISADNSKNTAYLQMNSLKPEDTAVYYCATYGYDSGRYYSWGQGTLVTVSS
With B13, the binding result in assay [1], in [2], in assay [3] and in assay [4] was “no binding” each time.
